# Results taken from patent US20250304650A1.
# Substitutions are numbered along the chain they refer to. In names and notes the source's numbering stands.
# B1: anti-NGF feline IgG1a, Fc variant S290V, R334D (antibody, part only; not given: anti-NGF variable domains, light chain, not shown: another chain or arm of the molecule; small tags and cut ends)
# Fc: PPEMLGGPSIFIFPPKPKDTLSISRTPEVTCLVVDLGPDDSDVQITWFVDNTQVYTAKTVPREEQFNSTYRVVSVLPILHQDWLKGKEFKCKVNSKSLPSPIEDTISKAKGQPHEPQVYVLPPAQEELSRNKVSVTCLIKSFHPPDIAVEWEITGQPEPENNYRTTPPQLDSDGTYFVYSKLSVDRSHWQRGNTYTCSVSHEALHSHHTQKSLTQSPGK
# B2: anti-NGF feline IgG1a, Fc variant S434Y, L309V (antibody, part only; not given: anti-NGF variable domains, light chain, not shown: another chain or arm of the molecule; small tags and cut ends)
# Fc: B1 Fc with V60S, L79V, D104R, S206Y
# B3: anti-NGF feline IgG1a, Fc variant Q311V (antibody, part only; not given: anti-NGF variable domains, light chain, not shown: another chain or arm of the molecule; small tags and cut ends)
# Fc: B1 Fc with V60S, Q81V, D104R
# B4: anti-NGF feline IgG1a, Fc variant L309V (antibody, part only; not given: anti-NGF variable domains, light chain, not shown: another chain or arm of the molecule; small tags and cut ends)
# Fc: B1 Fc with V60S, L79V, D104R
# B5: anti-NGF feline IgG1a, Fc variant S434Y, T286D (antibody, part only; not given: anti-NGF variable domains, not shown: another chain or arm of the molecule; small tags and cut ends)
# Fc: B1 Fc with T56D, V60S, D104R, S206Y
# B6: anti-NGF feline IgG1a, Fc variant Q311R (antibody, part only; not given: Anti-NGF variable domains, not shown: another chain or arm of the molecule; small tags and cut ends)
# Fc: B1 Fc with V60S, Q81R, D104R
# B7: anti-NGF feline IgG1a, Fc variant I377Y (antibody, part only; not given: anti-NGF variable domains, not shown: another chain or arm of the molecule; small tags and cut ends)
# Fc: B1 Fc with V60S, D104R, I147Y
# B8: anti-NGF feline IgG1a, Fc variant T260E, L309E, Q355L (antibody, part only; not given: anti-NGF variable domains, not shown: another chain or arm of the molecule; small tags and cut ends)
# Fc: B1 Fc with T30E, V60S, L79E, D104R, Q125L
# B9: anti-NGF feline IgG1a, Fc variant R301L (antibody, part only; not given: anti-NGF variable domains, not shown: another chain or arm of the molecule; small tags and cut ends)
# Fc: B1 Fc with V60S, R71L, D104R
# B10: anti-NGF feline IgG1a, Fc variant S434Y, L262E (antibody, part only; not given: Anti-NGF variable domains, not shown: another chain or arm of the molecule; small tags and cut ends)
# Fc: B1 Fc with L32E, V60S, D104R, S206Y
# B11: anti-NGF feline IgG1a, Fc variant S428L, Q311V (antibody, part only; not given: Anti-NGF variable domains, not shown: another chain or arm of the molecule; small tags and cut ends)
# Fc: B1 Fc with V60S, Q81V, D104R, S200L
# B12: anti-NGF feline IgG1a, Fc variant S434Y, Q347L (antibody, part only; not given: Anti-NGF variable domains, not shown: another chain or arm of the molecule; small tags and cut ends)
# Fc: B1 Fc with V60S, D104R, Q117L, S206Y
# B13: anti-NGF feline IgG1a, Fc variant Q311L (antibody, part only; not given: anti-NGF variable domains, light chain, not shown: another chain or arm of the molecule; small tags and cut ends)
# Fc: B1 Fc with V60S, Q81L, D104R
# B14: anti-NGF feline IgG1a, Fc variant S434Y, E293D (antibody, part only; not given: anti-NGF variable domains, light chain, not shown: another chain or arm of the molecule; small tags and cut ends)
# Fc: B1 Fc with V60S, E63D, D104R, S206Y
# B15: anti-NGF feline IgG1a, Fc variant Q347L (antibody, part only; not given: Anti-NGF variable domains, not shown: another chain or arm of the molecule; small tags and cut ends)
# Fc: B1 Fc with V60S, D104R, Q117L
# B16: anti-NGF feline IgG1a, Fc variant S428L, Q311K (antibody, part only; not given: anti-NGF variable domains, light chain, not shown: another chain or arm of the molecule; small tags and cut ends)
# Fc: B1 Fc with V60S, Q81K, D104R, S200L
# B17: anti-NGF feline IgG1a, Fc variant S434Y, T286E (antibody, part only; not given: anti-NGF variable domains, light chain, not shown: another chain or arm of the molecule; small tags and cut ends)
# Fc: B1 Fc with T56E, V60S, D104R, S206Y
# B18: anti-NGF feline IgG1a, Fc variant L309E (antibody, part only; not given: anti-NGF variable domains, light chain, not shown: another chain or arm of the molecule; small tags and cut ends)
# Fc: B1 Fc with V60S, L79E, D104R
# B19: anti-NGF feline IgG1a, Fc variant S428L, T286E (antibody, part only; not given: anti-NGF variable domains, not shown: another chain or arm of the molecule; small tags and cut ends)
# Fc: B1 Fc with T56E, V60S, D104R, S200L
# B20: anti-NGF feline IgG1a, Fc variant S254K (antibody, part only; not given: Anti-NGF variable domains, not shown: another chain or arm of the molecule; small tags and cut ends)
# Fc: B1 Fc with S24K, V60S, D104R
# B21: anti-NGF feline IgG1a with wild-type Fc (antibody, part only; not given: anti-NGF variable domains, not shown: another chain or arm of the molecule; small tags and cut ends)
# Fc: B1 Fc with V60S, D104R
# B22: anti-NGF feline IgG1a, Fc variant E380T (antibody, part only; not given: anti-NGF variable domains, not shown: another chain or arm of the molecule; small tags and cut ends)
# Fc: B1 Fc with V60S, D104R, E150T
# B23: anti-NGF feline IgG1a, Fc variant S434Y, K326D (antibody, part only; not given: anti-NGF variable domains, light chain, not shown: another chain or arm of the molecule; small tags and cut ends)
# Fc: B1 Fc with V60S, K96D, D104R, S206Y
# B24: anti-NGF feline IgG1a, Fc variant R301L, E380V, T437L (antibody, part only; not given: anti-NGF variable domains, light chain, not shown: another chain or arm of the molecule; small tags and cut ends)
# Fc: B1 Fc with V60S, R71L, D104R, E150V, T209L
# Molecular target: feline FcRn (FCN-F82W3, Acrobiosystems) (feline)
# Test: SPR Carterra, IgG coupled, pH 6.0
Binder,Kd [nM],koff [s⁻¹],kon [M⁻¹ s⁻¹]
B1,10.7,0.00997,931000
B2,1.8,0.004,2.21e+06
B3,80.4,0.0505,629000
B4,127,0.045,353000
B5,2.9,0.00371,1.28e+06
B6,59.2,0.0116,196000
B7,61.4,0.0514,837000
B8,9.9,0.00977,983000
B9,95.2,0.0435,457000
B10,3.3,0.00498,1.51e+06
B11,11.7,0.0107,916000
B12,3.4,0.00667,1.98e+06
B13,88.2,0.0499,565000
B14,3.4,0.00534,1.57e+06
B15,157,0.0853,544000
B16,10.5,0.0101,958000
B17,3.6,0.00345,965000
B18,102,0.0415,406000
B19,8.6,0.00987,1.15e+06
B20,107,0.0557,521000
B21,233,0.11,472000
B22,116,0.062,533000
B23,4,0.00549,1.38e+06
B24,10.7,0.0123,1.15e+06
